# Biological target: the molecule itself
# Experiment: cryo-EM structure; IBV spike ectodomain 0.35 mg/ml in 2 mM Tris pH7.2 and 20 mM NaCl, plunge-frozen; pre-fusion state; three-fold noncrystallographic symmetry constraints in refinement
protein,measurement,value
"IBV spike ectodomain (avian infectious bronchitis coronavirus, strain M41) (domain or fragment, glycans N-linked to 20 sites, Spike protein of avian infectious bronchitis coronavirus (IBV) strain M41, GenBank ABI26423.1, ectodomain residues 20-1084; transmembrane anchor and intracellular domain replaced by GCN4 and His6 tags; The structural model holds residues 21-1022 except 702-710; The GCN4 tag is a trimerization tag; also called trimeric IBV spike ectodomain; source: Sf9 insect cells (Bac-to-Bac), harvested from …) LYDSSSYVYYYQSAFRPPNGWHLHGGAYAVVNISSESNNAGSSPGCIVGTIHGGRVVNASSIAMTAPSSGMAWSSSQFCTAHCNFSDTTVFVTHCYKYDGCPITGMLQKNFLRVSAMKNGQLFYNLTVSVAKYPTFKSFQCVNNLTSVYLNGDLVYTSNETTDVTSAGVYFKAGGPITYKVMRKVKALAYFVNGTAQDVILCDGSPRGLLACQYNTGNFSDGFYPFINSSLVKQKFIVYRENSVNTTFTLHNFTFHNETGANPNPSGVQNILTYQTQTAQSGYYNFNFSFLSSFVYKESNFMYGSYHPSCNFRLETINNGLWFNSLSVSIAYGPLQGGCKQSVFSGRATCCYAYSYGGPSLCKGVYSGELDLNFECGLLVYVTKSGGSRIQTATEPPVITRHNYNNITLNTCVDYNIYGRTGQGFITNVTDSAVSYNYLADAGLAILDTSGSIDIFVVQGEYGLTYYKVNPCEDVNQQFVVSGGKLVGILTSRNETGSQLLENQFYIKITNGTRRFRRSITENVANCPYVSYGKFCIKPDGSIATIVPKQLEQFVAPLLNVTENVLIPNSFNLTVTDEYIQTRMDKVQINCLQYVCGNSLDCRDLFQQYGPVCDNILSVVNSIGQKEDMELLNFYSSTKPAGFNTPFLSNVSTGEFNISLLLTTPSSPRRRSFIEDLLFTSVESVGLPTDDAYKNCTAGPLGFLKDLACAREYNGLLVLPPIITAEMQTLYTSSLVASMAFGGITAAGAIPFATQLQARINHLGITQSLLLKNQEKIAASFNKAIGRMQEGFRSTSLALQQIQDVVNKQSAILTETMASLNKNFGAISSVIQEIYQQLDAIQANAQVDRLITGRLSSLSVLASAKQAEHIRVSQQRELATQKINECVKSQSIRYSFCGNGRHVLTIPQNAPNGIVFIHFSYTPDSFVNVTAIVGFCVKPANASQYAIVPANGRGIFIQVNGSYYITARDMYMPRAITAGDIVTLTSCQANYVSVNKTVITTFVDNDDFDFNDELSKWWNDTKHELPDFDKFNYTVPILDIDSEIDRIQGVIQGLNDSLIDLEKLS",stoichiometry N,3
